In article PMC4282956 (Journal of immunology (Baltimore, Md. : 1950), 2014) one finds Kd data, which are given here for one molecule.

This test addresses HLA-B*57:01.L82R/LF9 (human | ). Nature of the test: SPR.

B1: Soluble KIR3DL1*001 (receptor)
chain: HMGGQDKPFLSAWPSAVVPRGGHVTLRCHYRHRFNNFMLYKEDRIHIPIFHGRIFQESFNMSPVTTAHAGNYTCRGSHPHSPTGWSAPSNPVVIMVTGNHRKPSLLAHPGPLVKSGERVILQCWSDIMFEHFFLHKEGISKDPSRLVGQIHDGVSKANFSIGPMMLALAGTYRCYGSVTHTPYQLSAPSDPLDIVVTGPYEKPSLSAQPGPKVQAGESVTLSCSSRSSYDMYHLSREGGAHERRLPAVRKVNRTFQADFPLGPATHGGTYRCFGSFRHSPYEWSDPSDPLLVSVTGNPS
Regarding B1, the dissociation constant Kd (usually the equilibrium constant for the complex coming apart) came to 35.5 ± 8.34 µM.
